Experimental data: patent US20240116985A1, “STAPLED PEPTIDES AND METHODS THEREOF” (priority 2020, published 2024)
Starred links: 1 amine or outer side, 2 acyl side, 3 side chain; linkers in the order of their positions; H or OH if unused. Positions of bridges follow the written chain, without caps; N, C: chain ends. Non-standard residues stand in square brackets, D forms with d. Primed or numbered codes have the meaning given here. PyrS2(3) = (S)-3-amino-1-((pent-4-en-1-yloxy)carbonyl)pyrrolidine-3-carboxylic acid, stapling residue, C=CCCCOC(=O)N1CC[C@@](N[*:1])(C(=O)[*:2])C1; PyrS2″ = (S)-3-amino-1-((pent-4-en-1-yloxy)carbonyl)pyrrolidine-3-carboxylic acid (stapling residue), C=CCCCOC(=O)N1CC[C@@](N[*:1])(C(=O)[*:2])C1; B5(4) = 2,2-bis(4-pentenyl)glycine = 2-amino-2-(pent-4-en-1-yl)hept-6-enoic acid (stitching residue), C=CCCCC(CCCC=C)(N[*:1])C(=O)[*:2]; B5(5) = 2,2-bis(4-pentenyl)glycine, 2-amino-2-(pent-4-en-1-yl)hept-6-enoic acid (stitching residue), C=CCCCC(CCCC=C)(N[*:1])C(=O)[*:2]; B5(21) = 2-amino-2-(pent-4-en-1-yl)hept-6-enoic acid, bis(4-pentenyl)glycine (stitching residue), C=CCCCC(CCCC=C)(N[*:1])C(=O)[*:2]; PyrS2 = (S)-3-amino-1-((pent-4-en-1-yloxy)carbonyl)pyrrolidine-3-carboxylic acid, C=CCCCOC(=O)N1CC[C@@](N[*:1])(C(=O)[*:2])C1; B5(12) = 2-amino-2-(pent-4-en-1-yl)hept-6-enoic acid (two olefin side chains), C=CCCCC(CCCC=C)(N[*:1])C(=O)[*:2]; B5(22) = 2-amino-2-(pent-4-en-1-yl)hept-6-enoic acid (two alkene side chains), C=CCCCC(CCCC=C)(N[*:1])C(=O)[*:2]; 4TriA = (S)-2-amino-3-(1H-1,2,3-triazol-4-yl)propanoic acid, O=C([C@H](Cc1c[nH]nn1)N[*:1])[*:2]; B5(3) = 2,2-bis(4-pentenyl)glycine (stitching residue), C=CCCCC(CCCC=C)(N[*:1])C(=O)[*:2]; B5″ = 2,2-bis(4-pentenyl)glycine, stitching residue, C=CCCCC(CCCC=C)(N[*:1])C(=O)[*:2]; B5 = 2-amino-2-(pent-4-en-1-yl)hept-6-enoic acid, C=CCCCC(CCCC=C)(N[*:1])C(=O)[*:2]; Trp(1-Me) = Cn1cc(C[C@H](N)C(=O)O)c2ccccc21; Ala(4-thiazolyl) = N[C@@H](Cc1cscn1)C(=O)O; Phe(2-Cl) = N[C@@H](Cc1ccccc1Cl)C(=O)O; Bta = N[C@@H](Cc1csc2ccccc12)C(=O)O; αAllylPro = C=CC[C@@]1(C(=O)O)CCCN1; tBuAla = CC(C)(C)C[C@H](N)C(=O)O; 3Thi = N[C@@H](Cc1ccsc1)C(=O)O; S8 = C=CCCCCCC[C@](C)(N)C(=O)O; R5 = C=CCCC[C@@](C)(N)C(=O)O; hSer = N[C@@H](CCO)C(=O)O; Nle = CCCC[C@H](N)C(=O)O; Aib = CC(C)(N)C(=O)O

Key:
[1] = target: full-length beta-Catenin (Uniprot ID P35222) (Homo sapiens (Human)) (UniProt P35222); test: fluorescence polarization competition; 5FAM-TCF4(10-53) probe displaced from full-length beta-catenin
Target sequence in this assay (P35222 2-781 limits assumed): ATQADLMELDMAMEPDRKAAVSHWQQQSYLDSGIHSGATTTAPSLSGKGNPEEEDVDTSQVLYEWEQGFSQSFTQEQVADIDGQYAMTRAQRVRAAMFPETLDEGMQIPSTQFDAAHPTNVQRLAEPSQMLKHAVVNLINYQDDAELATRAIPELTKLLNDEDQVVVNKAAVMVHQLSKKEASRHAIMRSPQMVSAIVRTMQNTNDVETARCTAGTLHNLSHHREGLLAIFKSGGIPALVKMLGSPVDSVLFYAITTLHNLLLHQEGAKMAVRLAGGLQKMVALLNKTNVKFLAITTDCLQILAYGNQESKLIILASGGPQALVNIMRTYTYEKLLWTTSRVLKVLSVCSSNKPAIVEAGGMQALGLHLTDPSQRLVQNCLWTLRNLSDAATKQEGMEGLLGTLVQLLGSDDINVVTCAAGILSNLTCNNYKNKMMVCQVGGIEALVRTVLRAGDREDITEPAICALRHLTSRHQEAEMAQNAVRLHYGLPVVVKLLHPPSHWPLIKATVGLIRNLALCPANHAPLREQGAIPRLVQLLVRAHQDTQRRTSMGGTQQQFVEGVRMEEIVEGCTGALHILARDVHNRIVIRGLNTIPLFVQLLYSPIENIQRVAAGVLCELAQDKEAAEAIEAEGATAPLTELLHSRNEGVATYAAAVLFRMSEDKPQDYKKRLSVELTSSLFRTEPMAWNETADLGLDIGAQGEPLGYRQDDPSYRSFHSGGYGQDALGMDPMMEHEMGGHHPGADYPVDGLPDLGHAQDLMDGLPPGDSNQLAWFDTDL

[2] = target: beta-catenin (Homo sapiens (Human)) (UniProt P35222); test: fluorescence polarization competition; full-length beta-catenin with 5FAM-TCF4(10-53) probe as competitor
Chain of beta-catenin (Homo sapiens (Human)) (P35222 whole entry): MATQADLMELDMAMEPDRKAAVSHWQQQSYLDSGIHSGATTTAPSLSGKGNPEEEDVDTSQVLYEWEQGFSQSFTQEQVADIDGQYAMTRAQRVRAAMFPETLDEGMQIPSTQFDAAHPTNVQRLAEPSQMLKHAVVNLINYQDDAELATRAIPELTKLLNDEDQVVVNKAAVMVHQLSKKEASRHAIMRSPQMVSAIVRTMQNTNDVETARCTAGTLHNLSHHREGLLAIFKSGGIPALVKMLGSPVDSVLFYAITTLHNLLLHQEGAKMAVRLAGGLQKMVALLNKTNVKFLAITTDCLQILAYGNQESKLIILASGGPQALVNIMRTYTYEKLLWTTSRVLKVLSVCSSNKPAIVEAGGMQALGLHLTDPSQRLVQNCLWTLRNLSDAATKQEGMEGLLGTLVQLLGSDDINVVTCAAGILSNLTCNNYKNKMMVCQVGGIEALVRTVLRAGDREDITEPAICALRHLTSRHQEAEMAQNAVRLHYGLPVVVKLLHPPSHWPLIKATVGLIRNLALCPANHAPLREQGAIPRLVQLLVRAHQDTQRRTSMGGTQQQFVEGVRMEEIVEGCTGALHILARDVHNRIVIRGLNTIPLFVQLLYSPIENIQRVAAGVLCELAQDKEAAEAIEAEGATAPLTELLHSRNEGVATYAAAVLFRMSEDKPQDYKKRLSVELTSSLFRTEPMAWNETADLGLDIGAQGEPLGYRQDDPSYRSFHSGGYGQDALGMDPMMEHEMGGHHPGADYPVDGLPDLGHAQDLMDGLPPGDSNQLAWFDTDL

[3] = target: full-length beta-Catenin (Uniprot ID P35222) (Homo sapiens (Human)) (UniProt P35222); test: fluorescence polarization competition, displacement of 5FAM-TCF4 10-53 from full-length beta-catenin
Target sequence in this assay (P35222 2-781 limits assumed): as the sequence (P35222 2-781 limits assumed) above

[4] = target: full-length beta-Catenin (Uniprot ID P35222) (Homo sapiens (Human)) (UniProt P35222); test: fluorescence polarization competition; full-length beta-catenin; competitor 5FAM-TCF4(10-53) probe
Target sequence in this assay (P35222 whole entry, one chain of several): as the sequence (P35222 whole entry) above

[5] = target: full-length beta-Catenin (Uniprot ID P35222) (Homo sapiens (Human)) (UniProt P35222); test: fluorescence polarization competition; 10 nM full-length beta-catenin with 10 nM 5FAM-TCF4(10-53) probe as competitor
Target sequence in this assay (P35222 2-781 limits assumed): as the sequence (P35222 2-781 limits assumed) above

[6] = target: full-length beta-Catenin (Uniprot ID P35222) (Homo sapiens (Human)) (UniProt P35222); test: fluorescence polarization competition, peptide titrated against full-length beta-catenin + 5FAM-TCF4(10-53)
Target sequence in this assay (P35222 2-781 limits assumed): as above

Binder	IC50 [1]	EC50 [2]	IC50 [3]	EC50 [4]	also measured
Ac-[αAllylPro]D[Nle][B5(5)]DDAAFL[PyrS2″][Phe(2-Cl)][Bta]L-NH2 (staple 1-4, 4-11; also: staple isomer of later HPLC peak) [I-1421]	134 nM	134 nM	–	–	–
Ac-[αAllylPro]DS[B5(12)]DDAAFL[PyrS2″][3Thi][Bta]L-NH2 (staple 1-4, 4-11) [I-1414]	84 nM	84 nM	–	–	–
Ac-[αAllylPro]D[tBuAla][B5(4)]DDAAFL[S8][3Thi][Bta]T-NH2 (staple 1-4, 4-11) [I-1191]	–	–	38.5 nM	38.5 nM	–
Ac-[αAllylPro]D[tBuAla][B5(4)]DDAAFT[PyrS2″][3Thi][Bta]H-NH2 (staple 1-4, 4-11) [I-810]	–	–	–	–	IC50 [5]: 6 nM; EC50 [6]: 6 nM
Ac-[αAllylPro]D[tBuAla][B5]DDAAFN[PyrS2″][3Thi][Bta]T-NH2 (staple 1-4, 4-11) [I-814]	–	–	–	–	IC50 [5]: 7 nM; EC50 [6]: 7 nM
Ac-[αAllylPro]D[tBuAla][B5(22)]DDAAFL[PyrS2][3Thi]WQ-NH2 (staple 1-4, 4-11) [I-1431]	44 nM	34 nM	–	–	–
Ac-[αAllylPro]D[tBuAla][B5(3)]DDAAFT[PyrS2″][3Thi][Bta]Q-NH2 (staple 1-4, 4-11) [I-809]	–	–	–	–	IC50 [5]: 5 nM; EC50 [6]: 5 nM
Ac-[αAllylPro]D[tBuAla][B5(5)]DDAAFL[PyrS2″][Phe(2-Cl)][Bta]L-NH2 (staple 1-4, 4-11; also: staple isomer, earlier eluting HPLC peak) [I-1416]	57 nM	57 nM	–	–	–
Ac-[αAllylPro]D[tBuAla][B5(4)]DDAAFL[S8][Phe(2-Cl)][Bta][hSer]-NH2 (staple 1-4, 4-11) [I-1196]	–	–	85 nM	85 nM	–
Ac-PD[tBuAla][R5]DDAAFL[PyrS2″][3Thi][Bta]Q-NH2 (staple 4-11) [I-1181]	–	–	297 nM	226 nM	–
Ac-[αAllylPro]D[tBuAla][B5(4)]DDAAFL[S8][3Thi][Bta][4TriA]-NH2 (staple 1-4, 4-11) [I-1193]	–	–	78.5 nM	78.5 nM	–
Ac-[αAllylPro]D[tBuAla][B5(21)]DD[Aib][Aib]FL[PyrS2″][3Thi][Bta]Q-NH2 (staple 1-4, 4-11; also: later eluting HPLC peak (staple isomer composition)) [I-1180]	–	–	87 nM	87 nM	–
Ac-[αAllylPro]D[tBuAla][B5]DDAAFN[PyrS2″][3Thi][Bta]N-NH2 (staple 1-4, 4-11) [I-816]	–	–	–	–	IC50 [5]: 5 nM; EC50 [6]: 5 nM
Ac-[αAllylPro]D[tBuAla][B5(4)]DDAAFL[S8][Phe(2-Cl)][Bta]S-NH2 (staple 1-4, 4-11) [I-1189]	–	–	94.5 nM	94.5 nM	–
Ac-[αAllylPro]DT[B5(5)]DDAAFL[PyrS2″][3Thi][Bta]L-NH2 (staple 1-4, 4-11) [I-1415]	72 nM	72 nM	–	–	–
Ac-[αAllylPro]D[tBuAla][B5(22)]DDAAFL[PyrS2][3Thi][Trp(1-Me)]Q-NH2 (staple 1-4, 4-11) [I-1433]	71 nM	71 nM	–	–	–
Ac-[αAllylPro]D[tBuAla][B5(5)]DDAAFL[PyrS2″][Phe(2-Cl)][Bta]L-NH2 (staple 1-4, 4-11) [I-1417]	198 nM	198 nM	–	–	–
Ac-[αAllylPro]D[tBuAla][B5]DDAAFN[PyrS2″][3Thi][Bta]S-NH2 (staple 1-4, 4-11) [I-815]	–	–	–	–	IC50 [5]: 5 nM; EC50 [6]: 5 nM
Ac-[αAllylPro]D[tBuAla][B5(22)]DDAAFL[PyrS2][3Thi][Trp(1-Me)]S-NH2 (staple 1-4, 4-11) [I-1434]	83 nM	83 nM	–	–	–
Ac-PD[tBuAla][R5]DDAAFN[PyrS2″][3Thi][Bta]Q-NH2 (staple 4-11) [I-1182]	–	–	144 nM	144 nM	–
Ac-[αAllylPro]D[Nle][B5(5)]DDAAFL[PyrS2″][Phe(2-Cl)][Bta]L-NH2 (staple 1-4, 4-11; also: staple isomer, earlier eluting HPLC peak) [I-1420]	124 nM	124 nM	–	–	–
Ac-[αAllylPro]D[tBuAla][B5″]DDAAFL[S8][3Thi][Bta]H-NH2 (staple 1-4, 4-11) [I-1195]	–	–	29.5 nM	29.5 nM	–
Ac-[αAllylPro]D[tBuAla][B5(4)]DDAAFL[S8][Phe(2-Cl)][Bta]H-NH2 (staple 1-4, 4-11) [I-1194]	–	–	66.5 nM	66.5 nM	–
Ac-[αAllylPro]D[tBuAla][B5(4)]DDAAFL[S8][Phe(2-Cl)][Bta][4TriA]-NH2 (staple 1-4, 4-11) [I-1192]	–	–	81.5 nM	81.5 nM	–
Ac-[αAllylPro]D[tBuAla][B5]DDAAFN[PyrS2″][3Thi][Bta][dH]-NH2 (staple 1-4, 4-11) [I-813]	–	–	–	–	IC50 [5]: 7 nM; EC50 [6]: 7 nM
Ac-[αAllylPro]D[tBuAla][B5(22)]DDAAFL[PyrS2][3Thi]WS-NH2 (staple 1-4, 4-11) [I-1432]	27 nM	27 nM	–	–	–
Ac-[αAllylPro]D[tBuAla][B5(4)]DDAA[Ala(4-thiazolyl)]N[PyrS2″][3Thi][Bta]Q-NH2 (staple 1-4, 4-11) [I-812]	–	–	–	–	IC50 [5]: 33 nM; EC50 [6]: 33 nM
